From patent US20120184016A1, “NOVEL PROTEIN AND GENE THAT CODES THEREFOR” (priority 2009, published 2012)
Values joined by “and” are separate entries in the source; they are usually repeats but may differ in a detail not shown here. Equal values may be shown once.

Legend:
Type in all cases: biochemical
[1] = Confirmation of β-galactoside-α2,6-sialyltransferase activity with pyridylaminated lactose, HPLC; details: enzyme expressed by E. coli transformed with SHIZ119-N1C0/pTrc99A
Procedure: The linkage mode of sialic acid transferred to the sugar acceptor substrate can be determined by, but is not limited to, any procedure known to those skilled in the art, for example, a method using a pyridylaminated sugar chain or nuclear magnetic resonance spectroscopy (NMR) of the reaction product. The method using a pyridylaminated sugar chain involves an enzyme reaction using the pyridylaminated sugar chain as the sugar acceptor substrate. More specifically, an enzyme reaction is performed using pyridylaminated lactose (Galβ1-4Glc-PA, manufactured by Takara Bio Inc.) as a sugar acceptor substrate and CMP-NeuAc as a sugar donor substrate, and the reaction product is analyzed by high performance liquid chromatography (HPLC). From the retention time of the reaction product, the position at which sialic acid was transferred is determined.
Then, to determine the linkage mode of sialic acid, a reaction using PA-lactose as a substrate was performed. The enzyme reaction was performed using the resulting crude enzyme solution and a pyridylaminated sugar chain as the sugar acceptor substrate. As the pyridylaminated sugar chain, pyridylaminated lactose (Galβ1-4Glc-PA, manufactured by Takara Bio Inc.) was used. […] The analysis was performed under the following conditions: flow rate: 1 mL/min, column temperature: 40° C., detection: fluorescence (Ex: 320 nm, Em: 400 nm). […]

[2] = Optimum pH and optimum temperature for sialyltransferase enzyme activity; details: purified enzyme
Source text: The optimum pH and the optimum temperature of the recombinant β-galactoside-α2,6-sialyltransferase SHIZ119-N1C0 derived from the JT-SHIZ-119 strain were investigated using the purified enzyme prepared in Example 3.
Acetate buffer (pH 4.0 to 5.0), cacodylate buffer (pH 5.0 to 6.0), Bis-Tris buffer (pH 6.0 to 7.0), phosphate buffer (pH 7.0 to 8.0), TAPS buffer (pH 8.0 to 9.0), CHES buffer (pH 9.0 to 10.0), and CAPS buffer (pH 10.0 to 11.0) were each prepared and were used for enzyme activity measurement at 30° C. at various pH levels.
The enzyme activity was measured at every increment of 5° C. starting from 5° C. up to 50° C. using cacodylate buffer (pH 5.0).

[3] = Confirmation of neuraminidase activity (long reaction, HPLC); details: purified enzyme; PA-6′-sialyllactose signal decreased, PA-lactose signal increased with reaction time; FIG. 3-1
Procedure: In the process described in Example 2(6), the reaction using the purified enzyme solution of the JT-SHIZ-119-derived recombinant β-galactoside-α2,6-sialyltransferase prepared in Example 3 was performed for a long time. The signal of the reaction product (PA-6′-sialyllactose, retention time: 4.02 min) decreased and the signal of the PA-lactose (retention time: 3.73 min), which was the original sugar acceptor substrate, increased in accordance with an increase in reaction time (FIG. 3-1).

[4] = Sialyltransferase activity of crude enzyme solution (14C CMP-NeuAc transfer to lactose); details: crude enzyme extraction solution from transformed E. coli; with acceptor (120 mM lactose); 30° C. for 30 minutes; duplicate

B1: SHIZ119-N1C0 (protein)
chain: MCNDNQNTVDVVVSTVNDNVIENNTYQVKPIDTPTTFDSYSWIQTCGTPILKDDEKYSLSFDFVAPELDQDEKFCFEFTGDVDGKRYVTQTNLTVVAPTLEVYVDHASLPSLQQLMKIIQQKNEYSQNERFISWGRIGLTEDNAEKLNAHIYPLAGNNTSQELVDAVIDYADSKNRLNLELNTNTAHSFPNLAPILRIISSKSNILISNINLYDDGSAEYVNLYNWKDTEDKSVKLSDSFLVLKDYFNGISSEKPSGIYGRYNWHQLYNTSYYFLRKDYLTVEPQLHDLREYLGGSLKQMSWDGFSQLSKGDKELFLNIVGFDQEKLQQEYQQSELPNFVFTGTTTWAGGETKEYYAQQQVNVVNNAINETSPYYLGREHDLFFKGHPRGGIINDIILGSFNNMIDIPAKVSFEVLMMTGMLPDTVGGIASSLYFSIPAEKVSFIVFTSSDTITDREDALKSPLVQVMMTLGIVKEKDVLFWSDLPDCSSGVCIAQY
modifications: beta-galacoside-alpha-2,6-sialyltransferase from phorobacterium leiognathi (without signal peptide)
[1]
  reaction product with PA-lactose and CMP-NeuAc (linkage mode of transferred sialic acid): PA-6′-sialyllactose (Neu5Acα2-6Galβ1-4Glc-PA) was detected
[2]; 30° C., pH 4.0 to 11.0, FIG. 2-1
  pH at which sialyltransferase enzyme activity is the highest (optimum pH): 5.0
[2]; cacodylate buffer (pH 5.0), 5° C. up to 50° C., FIG. 2-2
  temperature at which sialyltransferase enzyme activity is the highest (optimum temperature): 35 °C
[3]
  neuraminidase activity (in words): also has neuraminidase activity
[4]
  Transferred NeuAc: 7786 cpm and 8446 cpm
